Here are results for 2 molecules from patent US20250195685A1 (CAPSTAN THERAPEUTICS, published 2025).

Where two headings read alike, the source gives them in different places.

Test [1] deals with T1, human CD8 on cells (CD8-overexpressing HEK293T cells, SupT1, HPB-ALL, human T cells, transfected HEK293 of … (human, UniProt P01732 22-235)).
T1 construct: whole, on cells; also called cell surface CD8
The test can be described thus: flow cytometry, Human Expanded T cells Donor 5, gated on live CD8 T cells (via CD3+CD4-). How it is done: (§1) To obtain the results shown in FIG. 8A and FIG. 8B, 5×10⁴ expanded primary T cells (human, cynomolgus macaque or rhesus monkey) were thawed and transferred to a V bottom 96-well culture plate (Corning). Cells were washed twice with Cell Staining buffer (#420201, Biolegend). Each anti-CD8α antibody was diluted in four-fold antibody titration series from 60 μg/mL to 0.057 ng/mL into Cell Staining buffer. Cells were stained with each diluted antibody solution for 30 minutes on ice. Cells were then washed three times with Cell Staining buffer and primary antibody binding was detected by staining with anti-human Fc BV421 conjugate antibody (#410704, Biolegend) at 1:200 dilution for 30 minutes on ice. […] Flow cytometry data was analyzed by Flowjo 10 (Becton, Dickinson & Company) to measure the geometric median fluorescence intensity (gMFI) of the on-cell binding from each antibody. The gMFI values were normalized with the gMFI measured in the sample stained with only the secondary detection antibody and plotted against the concentration of the added antibodies. The binding curves were constructed using Graphpad Prism software, and EC₅₀ values were determined by non-linear curve fitting.

In test [2] the target is T1, human CD8 on cells (CD8-overexpressing …). In words: flow cytometry, Human Expanded T cells Donor 6, gated on CD4- T cells, anti-human Fc BV421. The procedure:
(§2) Binding was measured by fluorescence from the BV421 fluorophore-conjugated anti-human Fc secondary antibody that recognize the binders. The gMFI was normalized to the gMFI of the secondary antibody in the absence of the anti-CD8α binders.
as §1, with “Cells were stained with each diluted antibody solution for 30 minutes on ice.” left out
(In general: In flow cytometry, cells or beads pass a laser one at a time.)

The target of test [3] is T2, human CD8αα homodimer, recombinant protein (Acro Biosystems) (human, UniProt P01732 22-182).
T2 construct: also called CD8αα antigen; biotinylated CD8α recombinant protein (CDA-H82E3)
T2 sequence (P01732 22-182 limits assumed): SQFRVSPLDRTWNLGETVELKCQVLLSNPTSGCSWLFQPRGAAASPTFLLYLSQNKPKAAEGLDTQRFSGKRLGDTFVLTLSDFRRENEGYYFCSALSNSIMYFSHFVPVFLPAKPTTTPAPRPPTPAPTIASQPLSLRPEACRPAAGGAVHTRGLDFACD
In words: BLI binding kinetic analysis, whole antibody, sample stressed at pH 8.5, 40 °C, 7 days. For orientation: BLI is a label-free optical method that tracks binding on a fibre tip over time.

Test [4] concerns the target T3, rhesus macaque CD8 on expanded primary T cells (rhesus macaque).
T3 construct: also called CD4- CD8+ rhesus T cells
The test can be described thus: flow cytometry, Rhesus Expanded T cells Donor 9, gated on live CD8 T cells (via CD3+CD4-). The procedure: as §1

Test [5] deals with T1, human CD8 on cells (CD8-overexpressing …). In words: flow cytometry, Human Expanded T cells Donor 6, gated on live CD8 T cells (via CD3+CD4-). The procedure:
as §1

In test [6] the target is T2, human CD8αα homodimer, recombinant …. In words: BLI steady state analysis, whole antibody, sample kept at pH 7.2, 4C (unstressed). The procedure: (§3) To assess affinity of whole antibodies, steady state analysis was used as the bivalent nature of both whole antibody and CD8α complicates kinetic analysis. 50 nM CD8α-His (that is, CD8α with a C-terminal oligohistidine tag; Acro) was immobilized on Ni-NTA sensor probes. Binding was analyzed with a three-fold antibody dilutions series: 60 nM, 20 nM, 6.67 nM, 2.22 nM, 0.74 nM, and 0.25 nM. The antigen-loaded sensors were incubated in the diluted solutions to capture the whole IgG antibody for 300 s to record the association phase. Sensors were incubated in the kinetic buffer for 900 s to record the dissociation phase. The spin speed was 1000 rpm for all steps except the antigen loading step which was 400 rpm to control density of the antigen. The temperature of the performed assays was at 30° C. during the association and dissociation phases. The sensor data were baseline subtracted and further analyzed in GatorOne software (version 2.10) to determine the equilibrium dissociation constants (KD) of the antibodies by fitting the signals of the steady states to the 1:1 binding model.

Test [7] deals with T3, rhesus macaque CD8 on expanded primary …. The test can be described thus: flow cytometry, Rhesus Expanded T cells Donor 8, gated on CD4- T cells, anti-human Fc BV421. How it is done:
as §2
as §1, with “Cells were stained with each diluted antibody solution for 30 minutes on ice.” left out

The target of test [8] is T1, human CD8 on cells (CD8-overexpressing …). The test can be described thus: flow cytometry, Human Expanded T cells Donor 6, gated on live CD8 T cells (via CD3+CD4-). How it is done:
as §1
The source holds these as a separate data set.

Test [9] has the same target. In words: flow cytometry, Human Expanded T cells Donor 5, gated on live CD8 T cells (via CD3+CD4-). How it is done:
as §1
This is another data set of the same source.

Test [10] has as its target T4, cynomolgus macaque CD8 on expanded primary T cells (cynomolgus macaque).
T4 construct: also called CD4- CD8+ cynomolgus macaque T cells
The test can be described thus: flow cytometry, Cyno Expanded T cells Donor 10, gated on live CD8 T cells (via CD3+CD4-). How it is done: as §1

Test [11] has as its target T4, cynomolgus macaque CD8 on expanded …. The test can be described thus: flow cytometry, Cyno Expanded T cells Donor 9, gated on CD4- T cells, anti-human Fc BV421. The procedure: as §2
as §1, with “Cells were stained with each diluted antibody solution for 30 minutes on ice.” left out

The target of test [12] is T2, human CD8αα homodimer, recombinant …. In words: BLI steady state analysis, whole antibody, sample stressed at pH 8.5, 40 °C, 7 days. How it is done:
as §3

The target of test [13] is T4, cynomolgus macaque CD8 on expanded …. The test can be described thus: flow cytometry, Cyno Expanded T cells Donor 10, gated on live CD8 T cells (via CD3+CD4-). How it is done:
as §1
This is another data set of the same source.

T1 sequence (P01732 22-235): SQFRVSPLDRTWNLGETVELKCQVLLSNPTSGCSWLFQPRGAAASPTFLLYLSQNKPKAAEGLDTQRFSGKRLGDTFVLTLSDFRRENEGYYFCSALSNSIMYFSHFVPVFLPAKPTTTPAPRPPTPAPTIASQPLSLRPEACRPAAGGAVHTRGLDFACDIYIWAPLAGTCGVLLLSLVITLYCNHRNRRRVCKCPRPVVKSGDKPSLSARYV

B1: CBD1033 whole antibody, human IgG1 with Fc-silencing mutations L234A, L235A and P329A (CBD1033-hIgG1-LALAPA) (antibody, V domains shown)
VH: QVQLVQSGAEVKKPGASVKVSCKASRYTFTDYNLHWVRQAPGQGLEWMGFIYPYNGGTGYAQKFQGRVTMTVDTSTSTAYMELSSLRSEDTAVYYCARDHRYNEGVSFDYWGQGTTVTVSS
VL: DIQLTQSPSSLSASVGDRATITCRASESVDGFGNSFMNWYQQKPGKAPKLLIYLASNLESGVPSRFSGSGSGTDFTLTISSVQPEDFATYYCQQNNEDPYTFGQGTKLEIKR
notes: On tLNPs the antibody was SATA-modified or AJICAP-thiolated (CBD1033.29) and conjugated to the LNP; also called CBD1033.3; CBD1033 IgG1
With B1, the EC50 (in general, the concentration that produces a half-maximal response) in test [1] was determined as 0.094 µg/mL; in [4], 0.145 µg/mL; in test [5], 0.112 µg/mL; in test [8], 0.767 nM; in test [9], 0.644 nM; in test [10], 1.16 nM. In test [13], the EC50 was found to be 0.169 µg/mL. Moreover, the concentration for a half-maximal effect (EC50 (read off the curve)) (usually the concentration giving half of the maximal effect) in test [2] is ~0.1 µg/mL; in test [7], ~0.1 µg/mL; in test [11], ~0.2 µg/mL. Moreover, the dissociation constant Kd (in general, the constant that tells how readily two partners part at equilibrium) in [3] turned out to be 2.19 nM; in [6] it was 1.45 nM; in test [12], 2.12 nM. Also, the off-rate (koff) (commonly the rate constant with which the complex falls apart) in test [3] was 0.00309 s⁻¹. Also, in [3], the kon (commonly the rate constant with which the complex forms) is 1.41e+06 M⁻¹ s⁻¹.

B2: CBD1017ch whole antibody (chimeric CT8 antibody) (antibody, V domains shown)
VH: EVQLQQSGPELVKPGASVKISCKASRYTFTDYNLHWVKLSHEKSLEWIGFIYPYNGGTGYNQKFKNKAKLTVDYSSSTAYMELRSLTSVDAAVYYCARDHRYNEGVSFDYWGQGTTLTVSS
VL: NIVLTQSPASLAVSLGQRATISCRASESVDGFGNSFMNWYQQKPGQSPKLLIYLASNLESGVPARFSGSGSRTDFTLTIDPVEADDAATYYCQQNNEDPYTFGGGTKLEIK
notes: Chimeric antibody comprising the variable regions of the donor antibody CT8; detected with anti-human Fc
B2: the 50% effective concentration (EC50) in test [1] came to 0.051 µg/mL; in test [4], 0.045 µg/mL; in test [5], 0.052 µg/mL; in [8], 0.356 nM; in [9], 0.349 nM; in [10], 0.39 nM. In test [13], this molecule yielded an EC50 of 0.057 µg/mL. Moreover, the concentration giving a half-maximal response (EC50 (read off the curve)) in [2] was ~0.05 µg/mL; in [7], ~0.05 µg/mL; in test [11], ~0.06 µg/mL. For the same molecule, the Kd in test [3] worked out at 0.55 nM; in test [6], 0.36 nM; in [12], 0.53 nM. In [3], the koff was 0.000795 s⁻¹. Further, the association rate constant (kon) in test [3] came out at 1.45e+06 M⁻¹ s⁻¹.
